{"source": "patent US20210015931A1", "about": "(KOREA INSTITUTE OF SCIENCE AND TECHNOLOGY, published 2021)", "binders": {"B1": {"name": "fusion protein-siRNA complex prepared in Example 2 (SIRPα-CD47 siRNA) (other)", "chain": "EEELQIIQPDKSVLVAAGETATLRCTITSLFPVGPIQWFRGAGPGRVLIYNQRQGPFPRVTTVSDTTKRNNMDFSIRIGNITPADAGTYYCIKFRKGSPDDVEFKSGAGTELSVRAKPVDGGFLGGGGCG", "modifications": "CD47 siRNA (sense SEQ ID NO: 17, antisense SEQ ID NO: 18) bound 1:1 through maleimide at the 3'-end of the sense strand to the thiol group of the cysteine at the end of the fusion protein", "notes": "The protein was expressed from pET28a in E. coli, purified on a His-tag column and detected with a His-tag antibody; also called SIPRα-CD47 siRNA; immunoregulatory protein-siRNA complex"}}, "target": "T1, CD47 receptors on HT-29 cells (human-derived colon cancer cells) (human, UniProt Q08722 19-323)", "T1 construct": "whole, on cells", "T1 sequence (Q08722 19-323)": "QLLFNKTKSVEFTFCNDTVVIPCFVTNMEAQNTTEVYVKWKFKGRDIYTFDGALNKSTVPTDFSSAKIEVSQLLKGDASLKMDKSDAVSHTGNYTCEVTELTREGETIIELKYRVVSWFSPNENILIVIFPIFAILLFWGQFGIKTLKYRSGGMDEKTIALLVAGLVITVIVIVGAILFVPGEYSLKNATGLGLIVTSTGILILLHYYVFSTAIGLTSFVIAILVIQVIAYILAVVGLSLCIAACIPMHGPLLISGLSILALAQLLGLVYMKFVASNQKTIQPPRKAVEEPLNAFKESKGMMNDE", "experiment": "confocal microscopy on HT-29 cells, uptake with and without CD47 antibody", "protocol": "It was investigated whether the fusion protein-siRNA complex prepared in Example 2 is effectively taken up into cells in vitro. First, 2×10⁵ HT-29 cells, which are human-derived colon cancer cells, were seeded onto a 35-mm cover glass bottom dish. Then, after adding SIRPα protein (SIRPα), CD47 siRNA or the fusion protein-siRNA complex prepared in Example 2 (SIPRα-CD47 siRNA), the cells were cultured at 37° C. for a day. Then, CD47 SiRNA was stained red by using the TOTO3 stain. Next, after treating with the fusion protein-siRNA complex separated and purified in Example 2 at a concentration of 100 pmol/mL, the cells were cultured for 4 hours in a carbon dioxide incubator at 37° C. Then, the cells were treated with a fixative and the SIRPα protein was stained green using FITC-labeled His-tag antibody. After staining the nuclei of the cells by treating with a 4′,6-diamidino-2-phenylindole (DAPI) solution for 10 minutes, fluorescence was measured by confocal microscopy.\nA mixture solution of the fusion protein-siRNA complex prepared in Example 2 and the CD47 antibody (Ab) was used as a control group."}
{"binder": "B1", "values": [{"measurement": "binding result", "result": "binds"}]}
